Data set [1] deals with the molecule itself. The data set can be described thus: SEC-MALS; Superose 6 10/300 GL, 20 mM HEPES pH 7.5, 150 mM KCl, 1 mM DTT; loading protein concentration varied, 500 uL injected; no nucleotide. Background: SEC sorts molecules by how far they enter the pores of the column.
Data set [2] concerns the molecule itself. The data set can be described thus: cell-based or functional assay.
Data set [3] concerns the molecule itself. As to the kind of experiment: number and brightness (N&B) analysis; living transfected wt MEFs, Drp1-null MEFs and HeLa cells, 37 C; brightness normalised to that of mEGFP alone taken as the monomer; puncta on mitochondria left out.
Data set [4] concerns the molecule itself. The data set can be described thus: fluorescence correlation spectroscopy (single-point FCS); 0.5 uM fluorescently labeled protein in solution, 25 C, 20 mM HEPES pH 7.5, 150 mM KCl, 1 mM DTT; without and with 1 mM GMP-PCP and 1 mM MgCl2 (30 min); unlabeled Drp1-wt (1 uM final, 2X molar excess) added where it is the partner.

B1: mEGFP-Drp1 (N-terminally mEGFP-tagged Drp1 isoform 3), recombinant from E. coli (natural protein, human, UniProt O00429-4 1-699, looked up)
chain: MEALIPVINKLQDVFNTVGADIIQLPQIVVVGTQSSGKSSVLESLVGRDLLPRGTGIVTRRPLILQLVHVSQEDKRKTTGEENGVEAEEWGKFLHTKNKLYTDFDEIRQEIENETERISGNNKGVSPEPIHLKIFSPNVVNLTLVDLPGMTKVPVGDQPKDIELQIRELILRFISNPNSIILAVTAANTDMATSEALKISREVDPDGRRTLAVITKLDLMDAGTDAMDVLMGRVIPVKLGIIGVVNRSQLDINNKKSVTDSIRDEYAFLQKKYPSLANRNGTKYLARTLNRLLMHHIRDCLPELKTRINVLAAQYQSLLNSYGEPVDDKSATLLQLITKFATEYCNTIEGTAKYIETSELCGGARICYIFHETFGRTLESVDPLGGLNTIDILTAIRNATGPRPALFVPEVSFELLVKRQIKRLEEPSLRCVELVHEEMQRIIQHCSNYSTQELLRFPKLHDAIVEVVTCLLRKRLPVTNEMVHNLVAIELAYINTKHPDFADACGLMNNNIEEQRRNRLARELPSAVSRDKVASGGGGVGDGVQEPTTGNWRGMLKTSKAEELLAEEKSKPIPIMPASPQKGHAVNLLDVPVPVARKLSAREQRDCEVIERLIKSYFLIVRKNIQDSVPKAVMHFLVNHVKDTLQSELVGQLYKSSLLDDLLTESEDMAQRRKEAADMLKALQGASQIIAEIRETHLW
notes: dynamin-related protein 1 (Drp1), human, isoform 3, printed length 699 aa; mEGFP is EGFP with A206K (also denoted A207K); fusion sub-cloned from pEGFP-C1 into pET28a; Monomer ~111 kDa as printed; source: E. coli (pET28a), purified to apparent homogeneity, then gel filtration (ENrich SEC 650); not shown: mEGFP, N-terminal, kept
By stoichiometry N is commonly meant a count of units in the complex or per binding partner. Take B1: the “stoichiometry N” value in data set [1] is at least 4. The “decrease in GTP turnover (kcat) relative to Drp1-wt, basal and cardiolipin-stimulated, malachite green assay, 0.5 uM protein” value in data set [2] is above 50%.

B2: mEGFP-Drp1 (N-terminally mEGFP-tagged Drp1 isoform 3), expressed in mammalian cells (natural protein, human, UniProt O00429-4 1-699, looked up)
chain: MEALIPVINKLQDVFNTVGADIIQLPQIVVVGTQSSGKSSVLESLVGRDLLPRGTGIVTRRPLILQLVHVSQEDKRKTTGEENGVEAEEWGKFLHTKNKLYTDFDEIRQEIENETERISGNNKGVSPEPIHLKIFSPNVVNLTLVDLPGMTKVPVGDQPKDIELQIRELILRFISNPNSIILAVTAANTDMATSEALKISREVDPDGRRTLAVITKLDLMDAGTDAMDVLMGRVIPVKLGIIGVVNRSQLDINNKKSVTDSIRDEYAFLQKKYPSLANRNGTKYLARTLNRLLMHHIRDCLPELKTRINVLAAQYQSLLNSYGEPVDDKSATLLQLITKFATEYCNTIEGTAKYIETSELCGGARICYIFHETFGRTLESVDPLGGLNTIDILTAIRNATGPRPALFVPEVSFELLVKRQIKRLEEPSLRCVELVHEEMQRIIQHCSNYSTQELLRFPKLHDAIVEVVTCLLRKRLPVTNEMVHNLVAIELAYINTKHPDFADACGLMNNNIEEQRRNRLARELPSAVSRDKVASGGGGVGDGVQEPTTGNWRGMLKTSKAEELLAEEKSKPIPIMPASPQKGHAVNLLDVPVPVARKLSAREQRDCEVIERLIKSYFLIVRKNIQDSVPKAVMHFLVNHVKDTLQSELVGQLYKSSLLDDLLTESEDMAQRRKEAADMLKALQGASQIIAEIRETHLW
notes: dynamin-related protein 1 (Drp1), human, isoform 3, printed length 699 aa; mEGFP is EGFP with A206K; In wt MEFs and HeLa cells endogenous Drp1 is also present; also called cytosolic mEGFP-Drp1; source: wt MEFs, Drp1-null MEFs and HeLa cells, transfected (pEGFP-C1), in living cells; not shown: mEGFP, N-terminal, kept
Take B2: the “stoichiometry N” value in data set [3] was around 4.

B3: Drp1-BODIPY FL (Drp1 labeled on surface Cys with BODIPY-FL C1-iodoacetamide) (natural protein, human, UniProt O00429-4 1-699, looked up)
chain: MEALIPVINKLQDVFNTVGADIIQLPQIVVVGTQSSGKSSVLESLVGRDLLPRGTGIVTRRPLILQLVHVSQEDKRKTTGEENGVEAEEWGKFLHTKNKLYTDFDEIRQEIENETERISGNNKGVSPEPIHLKIFSPNVVNLTLVDLPGMTKVPVGDQPKDIELQIRELILRFISNPNSIILAVTAANTDMATSEALKISREVDPDGRRTLAVITKLDLMDAGTDAMDVLMGRVIPVKLGIIGVVNRSQLDINNKKSVTDSIRDEYAFLQKKYPSLANRNGTKYLARTLNRLLMHHIRDCLPELKTRINVLAAQYQSLLNSYGEPVDDKSATLLQLITKFATEYCNTIEGTAKYIETSELCGGARICYIFHETFGRTLESVDPLGGLNTIDILTAIRNATGPRPALFVPEVSFELLVKRQIKRLEEPSLRCVELVHEEMQRIIQHCSNYSTQELLRFPKLHDAIVEVVTCLLRKRLPVTNEMVHNLVAIELAYINTKHPDFADACGLMNNNIEEQRRNRLARELPSAVSRDKVASGGGGVGDGVQEPTTGNWRGMLKTSKAEELLAEEKSKPIPIMPASPQKGHAVNLLDVPVPVARKLSAREQRDCEVIERLIKSYFLIVRKNIQDSVPKAVMHFLVNHVKDTLQSELVGQLYKSSLLDDLLTESEDMAQRRKEAADMLKALQGASQIIAEIRETHLW
modifications: BODIPY-FL iodoacetamide on Cys; primary targets of thiol modification are surface residues C505 and C607; ~2 mol dye/mol protein
notes: dynamin-related protein 1 (Drp1), human, isoform 3, printed length 699 aa; also called BODIPY-labeled Drp1; dye-labeled Drp1; source: E. coli, purified, then labeled with thiol-reactive BODIPY-FL iodoacetamide
On to B3, for which the binding result in data set [4] was “binds”.

B4: Drp1-mEGFP (C-terminally mEGFP-tagged Drp1 isoform 3), recombinant from E. coli (natural protein, human, UniProt O00429-4 1-699, looked up)
chain: MEALIPVINKLQDVFNTVGADIIQLPQIVVVGTQSSGKSSVLESLVGRDLLPRGTGIVTRRPLILQLVHVSQEDKRKTTGEENGVEAEEWGKFLHTKNKLYTDFDEIRQEIENETERISGNNKGVSPEPIHLKIFSPNVVNLTLVDLPGMTKVPVGDQPKDIELQIRELILRFISNPNSIILAVTAANTDMATSEALKISREVDPDGRRTLAVITKLDLMDAGTDAMDVLMGRVIPVKLGIIGVVNRSQLDINNKKSVTDSIRDEYAFLQKKYPSLANRNGTKYLARTLNRLLMHHIRDCLPELKTRINVLAAQYQSLLNSYGEPVDDKSATLLQLITKFATEYCNTIEGTAKYIETSELCGGARICYIFHETFGRTLESVDPLGGLNTIDILTAIRNATGPRPALFVPEVSFELLVKRQIKRLEEPSLRCVELVHEEMQRIIQHCSNYSTQELLRFPKLHDAIVEVVTCLLRKRLPVTNEMVHNLVAIELAYINTKHPDFADACGLMNNNIEEQRRNRLARELPSAVSRDKVASGGGGVGDGVQEPTTGNWRGMLKTSKAEELLAEEKSKPIPIMPASPQKGHAVNLLDVPVPVARKLSAREQRDCEVIERLIKSYFLIVRKNIQDSVPKAVMHFLVNHVKDTLQSELVGQLYKSSLLDDLLTESEDMAQRRKEAADMLKALQGASQIIAEIRETHLW
With B4, in data set [2], the “decrease in GTP turnover (kcat) relative to Drp1-wt, basal and cardiolipin-stimulated, malachite green assay, 0.5 uM protein” value was above 50%.

B5: Drp1-wt (N-terminal 6XHis-tagged human dynamin-related protein 1, isoform 3) (natural protein, UniProt O00429-4 1-699, looked up)
chain: MEALIPVINKLQDVFNTVGADIIQLPQIVVVGTQSSGKSSVLESLVGRDLLPRGTGIVTRRPLILQLVHVSQEDKRKTTGEENGVEAEEWGKFLHTKNKLYTDFDEIRQEIENETERISGNNKGVSPEPIHLKIFSPNVVNLTLVDLPGMTKVPVGDQPKDIELQIRELILRFISNPNSIILAVTAANTDMATSEALKISREVDPDGRRTLAVITKLDLMDAGTDAMDVLMGRVIPVKLGIIGVVNRSQLDINNKKSVTDSIRDEYAFLQKKYPSLANRNGTKYLARTLNRLLMHHIRDCLPELKTRINVLAAQYQSLLNSYGEPVDDKSATLLQLITKFATEYCNTIEGTAKYIETSELCGGARICYIFHETFGRTLESVDPLGGLNTIDILTAIRNATGPRPALFVPEVSFELLVKRQIKRLEEPSLRCVELVHEEMQRIIQHCSNYSTQELLRFPKLHDAIVEVVTCLLRKRLPVTNEMVHNLVAIELAYINTKHPDFADACGLMNNNIEEQRRNRLARELPSAVSRDKVASGGGGVGDGVQEPTTGNWRGMLKTSKAEELLAEEKSKPIPIMPASPQKGHAVNLLDVPVPVARKLSAREQRDCEVIERLIKSYFLIVRKNIQDSVPKAVMHFLVNHVKDTLQSELVGQLYKSSLLDDLLTESEDMAQRRKEAADMLKALQGASQIIAEIRETHLW
notes: dynamin-related protein 1 (Drp1), human, isoform 3, printed length 699 aa; also called unlabeled Drp1-wt; native-like His-tagged Drp1; source: E. coli, purified to apparent homogeneity, then gel filtration (ENrich SEC 650)
Take B5: in data set [1], the “stoichiometry N” value was at least 2.

B6: Drp1-AF488 (Drp1 labeled on surface Cys with Alexa Fluor 488 C5-maleimide) (natural protein, human, UniProt O00429-4 1-699, looked up)
chain: MEALIPVINKLQDVFNTVGADIIQLPQIVVVGTQSSGKSSVLESLVGRDLLPRGTGIVTRRPLILQLVHVSQEDKRKTTGEENGVEAEEWGKFLHTKNKLYTDFDEIRQEIENETERISGNNKGVSPEPIHLKIFSPNVVNLTLVDLPGMTKVPVGDQPKDIELQIRELILRFISNPNSIILAVTAANTDMATSEALKISREVDPDGRRTLAVITKLDLMDAGTDAMDVLMGRVIPVKLGIIGVVNRSQLDINNKKSVTDSIRDEYAFLQKKYPSLANRNGTKYLARTLNRLLMHHIRDCLPELKTRINVLAAQYQSLLNSYGEPVDDKSATLLQLITKFATEYCNTIEGTAKYIETSELCGGARICYIFHETFGRTLESVDPLGGLNTIDILTAIRNATGPRPALFVPEVSFELLVKRQIKRLEEPSLRCVELVHEEMQRIIQHCSNYSTQELLRFPKLHDAIVEVVTCLLRKRLPVTNEMVHNLVAIELAYINTKHPDFADACGLMNNNIEEQRRNRLARELPSAVSRDKVASGGGGVGDGVQEPTTGNWRGMLKTSKAEELLAEEKSKPIPIMPASPQKGHAVNLLDVPVPVARKLSAREQRDCEVIERLIKSYFLIVRKNIQDSVPKAVMHFLVNHVKDTLQSELVGQLYKSSLLDDLLTESEDMAQRRKEAADMLKALQGASQIIAEIRETHLW
modifications: AF488 maleimide on Cys; primary targets of thiol modification are surface residues C505 and C607; ~2 mol dye/mol protein
notes: dynamin-related protein 1 (Drp1), human, isoform 3, printed length 699 aa; also called AF488-labeled Drp1; dye-labeled Drp1; source: E. coli, purified, then labeled with thiol-reactive AF488 maleimide
For the protein B6, the binding result in data set [4] is “binds”.

Values taken from article PMC7479153, “GFP fluorescence tagging alters dynamin-related protein 1 oligomerization dynamics and creates disassembly-refractory puncta to mediate mitochondrial fission” (Scientific Reports, 2020).
